B1: FH1/FH2 domain-containing protein 1 (Homo sapiens), Q9Y613 (parent)
chain: MAGGEDRGDGEPVSVVTVRVQYLEDTDPFACANFPEPRRAPTCSLDGALPLGAQIPAVHRLLGAPLKLEDCALQVSPSGYYLDTELSLEEQREMLEGFYEEISKGRKPTLILRTQLSVRVNAILEKLYSSSGPELRRSLFSLKQIFQEDKDLVPEFVHSEGLSCLIRVGAAADHNYQSYILRALGQLMLFVDGMLGVVAHSDTIQWLYTLCASLSRLVVKTALKLLLVFVEYSENNAPLFIRAVNSVASTTGAPPWANLVSILEEKNGADPELLVYTVTLINKTLAALPDQDSFYDVTDALEQQGMEALVQRHLGTAGTDVDLRTQLVLYENALKLEDGDIEEAPGAGGRRERRKPSSEEGKRSRRSLEGGGCPARAPEPGPTGPASPVGPTSSTGPALLTGPASSPVGPPSGLQASVNLFPTISVAPSADTSSERSIYKARFLENVAAAETEKQVALAQGRAETLAGAMPNEAGGHPDARQLWDSPETAPAARTPQSPAPCVLLRAQRSLAPEPKEPLIPASPKAEPIWELPTRAPRLSIGDLDFSDLGEDEDQDMLNVESVEAGKDIPAPSPPLPLLSGVPPPPPLPPPPPIKGPFPPPPPLPLAAPLPHSVPDSSALPTKRKTVKLFWRELKLAGGHGVSASRFGPCATLWASLDPVSVDTARLEHLFESRAKEVLPSKKAGEGRRTMTTVLDPKRSNAINIGLTTLPPVHVIKAALLNFDEFAVSKDGIEKLLTMMPTEEERQKIEEAQLANPDIPLGPAENFLMTLASIGGLAARLQLWAFKLDYDSMEREIAEPLFDLKVGMEQLVQNATFRCILATLLAVGNFLNGSQSSGFELSYLEKVSEVKDTVRRQSLLHHLCSLVLQTRPESSDLYSEIPALTRCAKVDFEQLTENLGQLERRSRAAEESLRSLAKHELAPALRARLTHFLDQCARRVAMLRIVHRRVCNRFHAFLLYLGYTPQAAREVRIMQFCHTLREFALEYRTCRERVLQQQQKQATYRERNKTRGRMITETEKFSGVAGEAPSNPSVPVAVSSGPGRGDADSHASMKSLLTSRPEDTTHNRRSRGMVQSSSPIMPTVGPSTASPEEPPGSSLPSDTSDEIMDLLVQSVTKSSPRALAARERKRSRGNRKSLRRTLKSGLGDDLVQALGLSKGPGLEV

In the assay the parent is B1. The conditions noted are these: with rash_human HRAS.
Consider P41K, for which the “effect of a mutation on the interaction” value is on record as “increasing interaction”.

These data come from IntAct's records for PubMed 18786395.
